From patent US6361968 come the findings set out here.

One assay concerns the target c-Jun (unmodified) (UniProt P05412). The assay is described as follows: thermal melt of the mixture (FIG. 4).
Assay [1] has as its target bHLH MAX (unmodified Max) (UniProt P61244). The assay is described as follows: homodimer, dimerization study of FIG. 9.
The target of assay [2] is c-Myc bHLH protein (murine) (UniProt P01108). Briefly: heterodimer with c-Myc, dimerization study of FIG. 9.
Chain of c-Myc bHLH protein (murine) (P01108 368-454 limits assumed, form in doubt): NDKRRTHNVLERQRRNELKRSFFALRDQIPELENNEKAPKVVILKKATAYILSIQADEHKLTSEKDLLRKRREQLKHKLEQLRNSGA

Chain of c-Jun (unmodified) (P05412 241-331 limits assumed): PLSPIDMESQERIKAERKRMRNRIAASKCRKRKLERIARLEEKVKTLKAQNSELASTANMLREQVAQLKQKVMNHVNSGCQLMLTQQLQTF

For orientation: Tm means the temperature at the midpoint of the melting transition. Take “0heptad-Fos (c-Fos with the basic region deleted) (designed binder)”: in the assay with c-Jun (unmodified), the Tm turned out to be 53 °C. Usually Kd stands for the equilibrium constant for the complex coming apart. A high value points to a looser complex. For “bHLH MAX (unmodified Max) (from UniProt P61244 23-113)”, the Kd turned out to be 6 µM in assay [1] and 0.03 µM in assay [2].
